# Data from the supplement of paper PMC7125110.
# ± gives the standard error. Fewer inactive variants are shown than the library holds.
# B1: glmS ribozyme (parent)
# chain: AUAAAAGCGCCAGAACUACAGAAAUGUAGUUGACGAGGAGGAGGUUUAUCGAAUUUUCGGCGGAUGCCUCCAAA
# How the values were obtained:
# Conditions in all cases: with glucosamine-6-phosphate
# [1] = variants of: B1; experiment: self-cleavage kobs at 40 uM GlcN6P; higher = faster cleavage; RNA array
# Method in brief: (§1)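 Barcoded ribozyme variants, transcribed in situ by E. coli RNA polymerase on sequenced MiSeq chips, were followed via a hybridised Cy3 probe at 37 °C. Glucosamine-6-phosphate ranged from 40 μM to 10 mM in HEPES/KCl/Mg(OAc)2 buffer. kobs came from decay fits to per-tile medians, and kcat and KM from weighted Michaelis–Menten fits.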
# [2] = variants of: B1; experiment: self-cleavage kobs at 160 uM GlcN6P; higher = faster cleavage; RNA array
# Method in brief: as §1
# [3] = variants of: B1; experiment: self-cleavage kobs at 10000 uM GlcN6P; higher = faster cleavage; RNA array
# Method in brief: as §1
# [4] = variants of: B1; experiment: self-cleavage kobs at 640 uM GlcN6P; higher = faster cleavage; RNA array
# Method in brief: as §1
# [5] = variants of: B1; experiment: self-cleavage kobs at 2500 uM GlcN6P; higher = faster cleavage; RNA array
# Method in brief: as §1
Variant,self-cleavage kobs at 40 uM GlcN6P [1] [s⁻¹],self-cleavage kobs at 160 uM GlcN6P [2] [s⁻¹],self-cleavage kobs at 10000 uM GlcN6P [3] [s⁻¹],self-cleavage kobs at 640 uM GlcN6P [4] [s⁻¹],self-cleavage kobs at 2500 uM GlcN6P [5] [s⁻¹]
A39C G41U,< 1e-05,< 1e-05,–,–,–
A12C G38A G51A G59U C68U,< 1e-05,–,< 1e-05,–,–
C10G U30A C71G,< 1e-05,–,–,–,–
G13U U31C A64U,< 1e-05,–,–,–,–
A12U U57A G59C G60C,< 1e-05,–,–,–,–
C11G G44C,< 1e-05,< 1e-05,–,< 1e-05,< 1e-05
A42G G62U C68U,< 1e-05,–,–,–,–
U55A C71A,0.000472 ± 6.9e-05,0.000925 ± 0.00023,0.0132 ± 0.0032,0.00299 ± 0.00056,–
A36U C61G A64C,< 1e-05,–,–,–,–
C11U A48C,< 1e-05,< 1e-05,< 1e-05,< 1e-05,< 1e-05
A15U G38C G66U C67U,< 1e-05,–,< 1e-05,–,–
G13U C50G C67A,0.000194 ± 4.6e-05,0.000278 ± 4.6e-05,0.000101 ± 2.5e-05,–,0.000138 ± 2.2e-05
A15C A39G U56G,4.71e-05 ± 1.6e-05,–,0.00218 ± 0.00029,–,–
A6C G35U A36G G63U,< 1e-05,–,–,–,–
A15C G35A G51A C68A,< 1e-05,–,< 1e-05,< 1e-05,–
G38C U65G G66A,< 1e-05,< 1e-05,–,< 1e-05,< 1e-05
G9A G13A G43U G60A,< 1e-05,–,–,–,–
C16U A33U C68A,< 1e-05,< 1e-05,–,–,–
G29A A39C G59U,< 1e-05,–,–,–,–
G35U G59A,< 1e-05,–,–,< 1e-05,–
C8G A39U C58U,< 1e-05,< 1e-05,< 1e-05,< 1e-05,–
A6C A52G A53G,< 1e-05,–,–,–,–
C11U U49C,< 1e-05,< 1e-05,–,< 1e-05,< 1e-05
G9A G60A,< 1e-05,–,–,< 1e-05,–
C8A U49G,< 1e-05,< 1e-05,< 1e-05,< 1e-05,< 1e-05
A6C U31C,< 1e-05,< 1e-05,–,–,–
G32U U55G A64U,< 1e-05,–,–,–,–

Variant,self-cleavage kobs at 40 uM GlcN6P [1] [s⁻¹],self-cleavage kobs at 160 uM GlcN6P [2] [s⁻¹],self-cleavage kobs at 10000 uM GlcN6P [3] [s⁻¹],self-cleavage kobs at 640 uM GlcN6P [4] [s⁻¹],self-cleavage kobs at 2500 uM GlcN6P [5] [s⁻¹]
G35A U54A,< 1e-05,–,–,< 1e-05,< 1e-05
G29U G32C C61G,< 1e-05,–,< 1e-05,–,–
A52U C58A,< 1e-05,–,–,< 1e-05,–
A33C A39G G41C A53C,< 1e-05,< 1e-05,< 1e-05,< 1e-05,< 1e-05
A15U C34U,< 1e-05,< 1e-05,–,< 1e-05,< 1e-05
G63A G66U,< 1e-05,–,< 1e-05,< 1e-05,< 1e-05
G59U G60C,< 1e-05,–,< 1e-05,< 1e-05,–
G41C C50A G63U C67A,< 1e-05,–,< 1e-05,–,–
U30A G59U,< 1e-05,–,–,–,–
U56C C58U G60U,< 1e-05,< 1e-05,–,–,< 1e-05
A42G G44U,< 1e-05,< 1e-05,3.58e-05 ± 1.2e-05,–,–
A15U U30G G41U,0.000122 ± 2.7e-05,–,0.0015 ± 0.00032,–,0.000705 ± 0.00027
U46C C50A C58U G62C,< 1e-05,–,–,–,–
C8G U54A C67A,< 1e-05,–,–,–,–
U30C G35A C67U,< 1e-05,–,–,–,–
C10G G37U G40C G41U C50G,< 1e-05,–,–,–,–
G38C G60C C70U,< 1e-05,–,–,–,–
C10A G38U G59A G60A G62A A64U G66C C68G,0.000187 ± 6.6e-05,–,–,–,–
G7A A42G C70U,< 1e-05,–,–,–,< 1e-05
C8G U49A U54C G59U C67A,< 1e-05,< 1e-05,< 1e-05,< 1e-05,< 1e-05
A14G U69C C70U,0.000104 ± 3.2e-05,–,0.00316 ± 0.00074,–,–
A33U G41A U46C,< 1e-05,–,< 1e-05,–,–
G44A U56C C61U,< 1e-05,–,< 1e-05,< 1e-05,< 1e-05
G9A C11G A52C C68U,< 1e-05,–,< 1e-05,–,–
U31C G41U C70G,0.000329 ± 7e-05,–,0.00237 ± 0.00061,–,–
G38U G40C,< 1e-05,–,< 1e-05,< 1e-05,< 1e-05
